# Key:
# HEK293A cells = test: Fluorescence imaging of FPs in HEK293A cells with chromophore addition or HO-1 expression; format: cell-based; settings: smURFP/TDsmURFP in HEK293A cells
# Description: smURFP codons were optimized for human cell expression, and the gene was created by GenScript. smURFP, TDsmURFP (created from mammalian-optimized smURFP), IFP1.4 (mammalian-optimized form^35), IFP2.0 (mammalian-optimized form^46), and iRFP713 (mammalian-optimized form^36) were PCR amplified using Phusion High-Fidelity DNA Polymerase (NEB) with primers containing 5′ HindIII and 3′ XhoI restriction enzyme sites. HindIII-HF and XhoI (NEB)-digested PCR fragments were gel purified (Zymoclean Gel DNA Recovery Kit) and were ligated (T4 DNA Ligase, Life Technologies) into a similarly digested pCDNA3-IRES-eGFP vector (bicistronic to express two FPs in the same cell). For creation of HO-1-expressing mammalian vec-tors, the Synechocystis HO-1 was used, and the codons were not optimized for mammalian expression. Synechocystis HO-1 was directly amplified from the pBAD vector using primers containing 5′ BsiWI and 3′ XbaI restriction enzyme sites. pCDNA3 smURFP, TDsmURFP, IFP1.4, IFP2.0, or iRFP713-IRES-eGFP vectors were digested with BsiWI and XbaI (NEB), dephosphorylated (SAP, Roche), gel purified (Zymoclean Gel DNA Recovery Kit), and ligated (T4 DNA Ligase, Life Technologies) with similarly digested, purified HO-1 PCR fragment. For creation of smURFP fusions, smURFP was PCR amplified using Phusion High-Fidelity DNA Polymerase (NEB) with primers containing 5′ AgeI and 3′ NotI restriction enzyme sites for N-terminal fusions or with primers containing 5′ AgeI and 3′ BspEI restriction enzyme sites for C-terminal fusions. mGeos2-VEL-ManII-N-10 (Addgene 57551) and Dronpa-PDHA1-N-10 (Addgene 57292) vectors were digested with AgeI and NotI (NEB) and mCherry-αTubulin-C-18 (Addgene 55148) and tdTomato-LaminB1-10 (Addgene 58107) were digested with AgeI and BspEI, dephosphorylated (SAP, Roche), gel purified (Zymoclean Gel DNA Recovery Kit), and ligated (T4 DNA Ligase, Life Technologies) with similarly digested, purified smURFP PCR fragment. HEK293A (Invitrogen, Life Technologies), HT1080 (ATCC), and PC3 (ATCC) cells were grown in Dulbecco's Modified Eagle's medium (DMEM, Corning), supplemented with 10% FBS (Atlanta Biologicals)+1×penicillin—streptomycin (Fisher Scientific), which is referred to as growth media, on poly-D-lysine-coated glass-bottom culture dishes (MatTek, No. P35G-0-14-C). The HEK cell line is listed in the ICLAC and NCBI biosample databases and is commonly misidentified as the HeLa cell line. For expression of exogenous fluorescent proteins, there is no problem if there is a contaminating cell line because no endogenous biology or therapeutic results are being determined. HEK293A cells were purchased from Invitrogen (Life Technologies), and all experiments are derived from the same expanded frozen stock without cell line authentication or mycoplasma detection. Cells were transfected using 2 μg of circular DNA+5 μl Lipofectamine 2000 (Life Technologies) in 2 ml Opti-MEM (Life Technologies) for 4-5 h, transfection media was discarded, and prewarmed growth media was added. Chromophores (5 mM in DMSO) were added at indicated concentrations to growth media, warmed for 10-15 min at 37° C., and added to cells. For multiple timepoints, incubations were staggered to maintain equivalent incubation. Prior to imaging, cells were washed 1×2 ml growth media, 2×2 ml imaging solution, and imaged in 2 ml imaging solution. Fluorescence imaging was performed on a Zeiss Axiovert 200M inverted microscope controlled by SlideBook software. FPs were imaged with the following settings: eGFP, EX/EM=495(10)/535(25) nm, tdTomato EX/EM=540(25)/595(50) nm; mCherry and mCardinal, EX/EM=580(20)/653(95) nm; smURFP and TDsmURFP, EX/EX=628(40)/680(30) nm; and IFP1.4, IFP2.0, and iRFP713, EX/EM=665(45)/725(50) nm. […]
# Escherichia coli = test: Fluorescence of FPs expressed in Escherichia coli; format: cell-based
# Experimental: TeAPCα gene (codons optimized for Escherichia coli) was made by GenScript. Mutations were placed by random mutagenesis using GeneMorphII Random Mutagenesis Kit (Agilent Technologies). Screens for mutants that fluoresce with PCB or BV were performed by subcloning into a pBAD vector (Life Technologies) that expressed cyanobacteria Synechocystis HO-1 and Synechocystis PcyA genes for PCB production and Synechocystis HO-1 only for BV production, as previously described^34. Libraries were expressed in TOP 10 Electrocompetent Escherichia coli cells (Life Technologies) with addition of 0.2% arabinose to LB agar plates (FPs were constitutively expressed in Escherichia coli). Fluorescence was imaged on plates using a BioSpectrum AC Imaging System (UVP) with EX/EM=628(40)/690(50) nm for FPs+PCB, EX/EM=685(40)/710LP nm for rounds 4 and 5 FPs+BV, and EX/EM=650(13)/690(50) nm for Cy5-like FPs+BV (rounds 6-12). At round 6, 5-10 of the brightest colonies on each plate were combined in LB+0.2% arabinose, grown ˜18 h, mixture of plasmid DNA was purified, and TOP10 cells were transformed and plated on LB agar plates+0.2% arabinose. Fluorescence was screened on plates (as described above), 10-20 of the brightest colonies were screened in liquid culture fluorescence (FIG. 7a-e), plasmid DNA was purified, and DNA was sequenced. The plasmid DNA of 2-3 of the brightest FPs was chosen for mutagenesis for the subsequent round. When choosing DNA for subsequent mutagenesis rounds, genes with increased and/or novel silent DNA mutations were chosen over other DNA that had the same DNA and/or protein sequence of the previous round. Site-specific mutagenesis was performed using QuikChange Lightning Mutagenesis Kit (Agilent Technologies) to create smURFP (C4S mutation) and smURFP C52S.
# [1] = FP purification and fluorescence characterization in vitro (spectra, extinction coefficient, quantum yield); format: physicochemical; settings: for Molecular Brightnes Relative to smURFP / Emission Maximum / Excitation Maximum / Extinction Coefficient / Quantum Yield: Table 4; for Emission Maximum / Excitation Maximum / Extinction Coefficient / Quantum Yield: evolved APCα FPs
# Experimental: FP genes were expressed on a pBAD vector (Life Technologies) with a polyhistidine tag on the C terminus, cells were lysed with B-PER (Thermo Scientific), and purified using Ni-NTA (Qiagen) puri-fication. PCB (HO-1+PcyA) and BV (HO-1) incorporation in Escherichia coli was performed simultaneously during constitu-tively active FP expression. Extinction coefficient was determined by PCB or BV absorbance as described35,36 (Table 3, smURFP+BV and TDsmURFP+BV, and Table 2) or calculated for the apoproteins by determining the protein concentration by the BCA protein assay (Pierce), and a specific chromo-phore concentration was added (specified in the Purification of FP lacking chromophore and in vitro chromophore incorporation section) to get 1 and 2 chromophore species (Table 5, not including (Escherichia coli)). When FP chromophore (PCB or BV) was expressed in Escherichia coli, the PCB and BV Q band had absorbance that overlapped with detection of BCA or Bradford assay of 562 nm and 592 nm, respectively. We used the previously published protocols35,36, where there was no change of the BV absorbance at 390 nm when free in solution or attached to the FP. smURFP+BV denaturation with 1 M urea caused no change in the BV absorbance at 390 nm, but the Q band was reduced ˜20-fold. Therefore, the extinction coefficient of BV at 390 nm was used to calculate the concentration of holoprotein (FP+PCB or BV) concentration.
# EX and EM spectra were obtained using SPEX Fluorolog fluorometer (Horiba). Absorbance spectra were obtained using UV-VIS Spectrophotometer Cary Eclipse (Varian) or UV-2700 (Shimadzu). Quantum yield was determined relative to Cy5. Incorporation rates of BV on 0.5 μM smURFP was performed by addition of smURFP to PBS alone or with 20% fetal bovine serum (FBS) and mixed by pipetting in a quartz cuvette. Chromophore was added last, mixed by pipetting, and fluorescence was recorded using SPEX Fluorolog fluorometer (Horiba). Photobleaching was characterized on bubbles of purified FP or Cy5 within mineral oil using light from a 150 W xenon arc lamp with 100% light through EX/EM=628(40)/680(30) nm for smURFP, TDsmURFP, and Cy5 or EX/EM=665 (45)/725 (50) nm for IFP 1.4 focused with a 40×, 1.2 numerical aperture C-Apochromat oil-immersion lens on a Zeiss Axiovert 200M inverted microscope. Photobleaching times were normalized to reflect an initial illumination intensity producing 1,000 photons per fluorescent molecule per second as previously described^37.
# HO-1 was removed by digesting the pBAD vector (Life Technology) with MscI and PmeI (NEB). smURFP and TDsmURFP were expressed and purified as described above. No chromophore was present on smURFP and TDsmURFP (confirmed by UV, fluorescence imaging, and MS). For predominant fluorescent species+2 chromophores, a ten-fold excess of chromophore was added to smURFP and TDsmURFP. For predominant fluorescent species+1 chromophore, a quarter concentration of chromophore was added to smURFP and TDsmURFP. Chromophore was added in PBS+10% FBS at 37° C. overnight. smURFP+chromophore and TDsmURFP+chromophore were purified using NiNTA (Qiagen) to remove excess or noncovalently attached chromophore.
Molecule,chromophore concentration reaching saturation of fluorescence (HEK293A cells) [µM],chromophore concentration required for fluorescence similar to 2.5 μM BVMe2 (HEK293A cells) [µM],fluorescence when expressed in E. coli (qualitative) (Escherichia coli),extinction coefficient (EC) [1],quantum yield (QY) [1] [%],Molecular Brightnes Relative to smURFP [1] [%],Emission Maximum [1] [nm],Excitation Maximum [1] [nm],Extinction Coefficient [1],Quantum Yield [1] [%],fold brighter than R1+PCB (Escherichia coli; expressed in E. coli) [fold],red-shift of excitation and emission relative to R3-2+PCB [1] [nm]
"C=CC1=C(C)/C(=C/C2=NC(=C\c3[nH]c(/C=C4/NC(=O)C(C)=C4C=C)c(C)c3CCC(=O)OC)/C(CCC(=O)OC)=C2C)NC1=O [BVMe2, biliverdin dimethylester, reference compound]",≤ 2.5,,,,,,,,,,,
"phycocyanobilin [PCB, reference compound]",,≥ 40,,,,,,,,,,
"TeAPCα: Trichodesmium erythraeum allophycocyanin α-subunit, nonfluorescent parent protein, SEQ ID NO: 1 (protein, smRUFP Variant Polypeptide) MKTGEQRVKIATLLSENEKKIVDKASQDLWRRRPDFIAPGGNAFGQRERALCLRDYGWYLRLITYGLLAGDKDPIESIGLIGVREMYNSLGVPVPGMVESIRCLKEASLSLLDEEDAKETAPYFDYIIQAMS",,,showed no fluorescence,,,,,,,,,
"R2-1 + PCB: evolved APCα FP, SEQ ID NO: 3, with PCB (protein, phycocyanobilin chromophore; smRUFP Variant Polypeptide) MKTGEQRVKIATLLSENEKKIVDKASQDLWRRRPDFIAPGGIAFGQRERALCLRDYGWYLRLITFCLLAGDKDPIESIGLIGVREMYNSLGVPVPGMVESIRCLKEASLSLLDEEDAKETAPYFDYIIQAMS",,,lacked fluorescence with BV,"65,000 M^−1cm^−1",7.2,14,648,626,"65,000 M^−1 cm^−1",7.2,27,
"R5-2: evolved APCα FP, SEQ ID NO: 6, with BV (protein, biliverdin chromophore; smRUFP Variant Polypeptide) MKTCEQRVKIATLLSENEKKIVDKASQDLWRRRPDFIAPGGIAFSQRERALCLRDHRWYLHLITFCLLAGDKDPIESIGLIGIREMYNSLGVPVPGMMESIRCLKEASLSLLDEEDAKETAPYFDYIIKAMS",,,,"71,000 M^−1cm^−1",5.3,12,696,671,"71,000 M^−1 cm^−1",5.3,,~49
"R6-6: evolved APCα FP, SEQ ID NO: 7, with BV (protein, biliverdin chromophore; smRUFP Variant Polypeptide) MKTCEQRVKIATLLSENEKKIVDKASQDLWRRRPDLIAPGGIAFSQRERALCLRDYGWYLHLITFCLLAGDKGPIESIGLIGIREMYNSLGVPVPGMMESIRCLKEASLSLLDEEDAKETAPYFDYIIKAMS",,,,"190,000 M^−1cm^−1",9.6,56,676,648,"190,000 M^−1 cm^−1",9.6,,
